The record followed here is patent publication US8530190 (MERCK SERONO, dated 2013).

The target in test [1] is T1, human FSH receptor (human, UniProt P23945 18-695).
T1 construct: whole, on cells; also called hFSH receptors
T1 sequence (looked up): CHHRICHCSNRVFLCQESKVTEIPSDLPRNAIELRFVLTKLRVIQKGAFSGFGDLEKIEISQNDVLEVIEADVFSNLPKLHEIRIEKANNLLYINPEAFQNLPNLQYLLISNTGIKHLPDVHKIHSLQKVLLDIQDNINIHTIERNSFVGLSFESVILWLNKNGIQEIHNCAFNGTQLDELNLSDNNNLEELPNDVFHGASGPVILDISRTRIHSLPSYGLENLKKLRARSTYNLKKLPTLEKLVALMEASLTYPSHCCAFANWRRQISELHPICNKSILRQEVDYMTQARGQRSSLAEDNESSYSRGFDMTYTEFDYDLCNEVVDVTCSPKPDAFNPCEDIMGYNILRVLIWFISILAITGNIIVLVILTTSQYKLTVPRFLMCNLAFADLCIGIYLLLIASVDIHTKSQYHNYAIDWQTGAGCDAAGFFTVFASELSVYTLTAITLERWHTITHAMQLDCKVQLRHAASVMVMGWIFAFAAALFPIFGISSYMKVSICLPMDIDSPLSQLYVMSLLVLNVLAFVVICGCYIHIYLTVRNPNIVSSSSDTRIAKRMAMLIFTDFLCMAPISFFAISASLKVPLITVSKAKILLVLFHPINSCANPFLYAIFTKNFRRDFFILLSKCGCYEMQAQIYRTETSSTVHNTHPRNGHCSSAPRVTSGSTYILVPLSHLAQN
Description: hormone-receptor complex formation (Table 1D).

The target of test [2] is T2, rat LH receptor (rat, UniProt P16235 27-700).
T2 construct: whole, on cells; also called LH receptors
T2 sequence (P16235 27-700): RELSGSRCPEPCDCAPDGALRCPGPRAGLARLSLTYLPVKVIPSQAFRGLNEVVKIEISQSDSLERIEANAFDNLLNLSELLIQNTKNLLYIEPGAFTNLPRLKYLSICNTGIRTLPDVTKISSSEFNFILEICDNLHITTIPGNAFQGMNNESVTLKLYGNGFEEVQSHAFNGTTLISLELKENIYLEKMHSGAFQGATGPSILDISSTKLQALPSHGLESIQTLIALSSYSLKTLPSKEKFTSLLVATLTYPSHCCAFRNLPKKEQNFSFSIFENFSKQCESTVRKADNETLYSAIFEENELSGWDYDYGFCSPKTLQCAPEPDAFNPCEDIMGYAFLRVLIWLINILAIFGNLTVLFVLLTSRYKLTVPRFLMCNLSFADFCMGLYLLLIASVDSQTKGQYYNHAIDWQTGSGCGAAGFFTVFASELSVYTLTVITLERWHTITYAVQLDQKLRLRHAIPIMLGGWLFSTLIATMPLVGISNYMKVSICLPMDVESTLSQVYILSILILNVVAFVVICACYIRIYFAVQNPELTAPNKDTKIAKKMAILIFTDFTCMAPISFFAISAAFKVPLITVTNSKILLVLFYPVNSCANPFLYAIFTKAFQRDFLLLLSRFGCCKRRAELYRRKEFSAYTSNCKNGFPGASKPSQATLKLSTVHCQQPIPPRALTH
Briefly: hormone-receptor complex formation (Table 1D).

Test [3] concerns the target T2, rat LH receptor. Description: inhibition of radiolabeled hCG binding to LH receptors (FIG. 22).
For test [4], the target named is T1, human FSH receptor. Briefly: receptor binding and signal transduction assays.
Test [5] has as its target T2, rat LH receptor. Description: receptor binding and signal transduction assays.
The target of test [6] is T2, rat LH receptor. Description: inhibition of radiolabeled hCG binding to LH receptors (FIG. 23).
Test [7] concerns the target T2, rat LH receptor. Description: competition with radiolabeled hCG on CHO cells expressing LH receptors (FIG. 18).
Description: (§1) These employed CHO cells that had been transfected with the genes encoding the LH receptor cDNA and that therefore express functional LH receptors on their surfaces.
Test [8] deals with T2, rat LH receptor. Briefly: inhibition of 125I-hCG binding to CHO cells expressing LH receptors (FIG. 30).
Description: as §1
Test [9] has as its target T2, rat LH receptor. Description: inhibition of 125I-hCG binding to 200,000 CHO cells that express LH receptors (FIG. 6).
Description: as §1
Test [10] has as its target T2, rat LH receptor. Briefly: inhibition of 125I-hCG binding to CHO cells expressing LH receptors (FIG. 17).
Description: as §1

Positions count from the first letter of the chain named. Names and notes keep the numbering of the source.

B1: CF101-109 (ligand)
chain 1: not shown
chain 2: SKEPLRPRCRPINATLAVEKEGCPVCITVNTTICAGYCPTMTRVLQGVLPALPQVVCNYRDVRFESIRLPGCPRGVNPVVSYAVALSCQCALCRRSTTDCTVRGLGPSYCDDPRFQDSSSSKAPPPSLPSPSRLPGPSDTPILPQ
For B1, the binding result in test [1] and in [2] was “binds” each time.

B2: CFC101-114(α51-β99) (ligand)
chain 1: not shown
chain 2: B1 chain 2 with D99C, D111S, D112F, P113G, R114E
notes: Intersubunit disulfide αCys51-βCys99; also called CFC101(α51-β99)
B2: the “fold less active than CFC101-114 in inhibiting radiolabeled hCG binding” value in test [3] is around 100 fold.

B3: CFC101-114(αK51C-β) (ligand)
chain 1: not shown
chain 2: B1 chain 2 with D111S, D112F, P113G, R114E
For the molecule B3, the binding result in test [3] is reported as “binds”.

B4: CFC101-114 (ligand)
chain 1: not shown
chain 2: B1 chain 2 with D111S, D112F, P113G, R114E
notes: also called bifunctional hCG/hFSH chimeric analog
As to B4, the binding result in test [4] and in test [5] was “binds” each time.

B5: CFC101-114(αK51A-β) (ligand)
chain 1: not shown
chain 2: B1 chain 2 with D111S, D112F, P113G, R114E
notes: built on the mature α-subunit entry
Turning to B5, the binding result in test [6] is recorded as “binds”.

B6: CFC101-114(α-βD99C) (ligand)
chain 1: not shown
chain 2: B1 chain 2 with D99C, D111S, D112F, P113G, R114E
As for B6, the binding result in test [3] is listed as “binds”.

B7: hCG(αK51A-β) (ligand)
chain 1: not shown
chain 2: B1 chain 2 with T101G, V102G, R103P, G104K, L105D, G106H, S108L, Y109T
notes: as for B5
B7: the binding result in test [7] was “binds”.

B8: hCG(α31-β37, α51-β99) (ligand)
chain 1: not shown
chain 2: B1 chain 2 with Y37C, D99C, T101G, V102G, R103P, G104K, L105D, G106H, S108L, Y109T
notes: Two intersubunit disulfides; also called α(C7S,K51C) + hCGβ′(Y37C,D99C)
On to B8, for which, in test [8], the binding result is “binds”.

B9: hCG(α31-β37) (ligand)
chain 1: not shown
chain 2: B1 chain 2 with Y37C, T101G, V102G, R103P, G104K, L105D, G106H, S108L, Y109T
notes: Intersubunit disulfide αCys31-βCys37; also called hCG3(α31-β37); crosslinked hCG analog
Regarding B9, the binding result in test [9] is on record as “binds”.

B10: CFC101-114(α31-β37) (ligand)
chain 1: not shown
chain 2: B1 chain 2 with Y37C, D111S, D112F, P113G, R114E
notes: Intersubunit disulfide αCys31-βCys37
With B10, the binding result in test [4] and in test [5] was “binds” in each case.

B11: hCG(α-βD99C) (ligand)
chain 1: not shown
chain 2: B1 chain 2 with D99C, T101G, V102G, R103P, G104K, L105D, G106H, S108L, Y109T
notes: also called hCG(α-β99)
Take B11: the binding result in [10] is on record as “binds”.
